Data from patent US20180071818, “A PROCESS FOR THE PREPARATION OF BIO-ORGANIC COATED GOLD AND SILVER NANOPARTICLES USING BLUE LIGHT” (Council of Scientific & Industrial Research, published 2018).

Target: Gelsolin (full-length) (Homo sapiens, UniProt P06396 P06396:28-782)
Test: ELONA; aptamer-Ag nanoparticles coated directly, gelsolin 2 ug/well, anti-gelsolin detection; room temperature
Settings: tags: Sigma; His tag inferred from capture by anti-His antibody; label: silver nanoparticle
Method: In case of aptamer based Ag nanoparticles formation, reaction mixture was prepared by adding 18 μl of Aptamer 10.10R (SEQ ID No. 8) (4.86 μg/μl or 18 pmoles/μl) in each 0.2 ml of reaction volume of buffer (25 mM tris pH 8, 150 mM NaCl, 5 mM MgCl₂, 10 mM KCl, 0.01% tween and 2 mM CaCl₂) with 7.2 μl of AgNO₃ of 5 mM stock solution to form Ag nanoparticles. The final molar ratio of silver ions to aptamer 10.10R was kept constant at […]. Treated the ELISA plate with 1 μg/well streptavidin (1 mg/ml) and incubated the plate overnight at 4° C. For aptamer based Ag nanoparticles coating streptavidin was not used. The wells were blocked with 3% bovine serum albumin (BSA) in PBS and kept at room temperature for 2 hours to saturate excess binding sites. The wells were then washed three times with PBST and further added with 5, 10 and 20 μl of aptamer only and aptamer Ag nanoparticles (18 pmoles/μl), making aptamer working concentration of […]. All the coatings were performed in duplicates for two conditions one with and one without gelsolin in next step. […] The absorbance was measured with a multiskan ELISA reader at 450 nm.
It was observed that the coated aptamer or aptamer_Ag nanoparticles were captured by gelsolin which was further detected using anti-gelsolin antibody using an indirect ELISA based method (FIG. 4C). […]

Sequence of Gelsolin (full-length) (P06396 28-782, one chain of several): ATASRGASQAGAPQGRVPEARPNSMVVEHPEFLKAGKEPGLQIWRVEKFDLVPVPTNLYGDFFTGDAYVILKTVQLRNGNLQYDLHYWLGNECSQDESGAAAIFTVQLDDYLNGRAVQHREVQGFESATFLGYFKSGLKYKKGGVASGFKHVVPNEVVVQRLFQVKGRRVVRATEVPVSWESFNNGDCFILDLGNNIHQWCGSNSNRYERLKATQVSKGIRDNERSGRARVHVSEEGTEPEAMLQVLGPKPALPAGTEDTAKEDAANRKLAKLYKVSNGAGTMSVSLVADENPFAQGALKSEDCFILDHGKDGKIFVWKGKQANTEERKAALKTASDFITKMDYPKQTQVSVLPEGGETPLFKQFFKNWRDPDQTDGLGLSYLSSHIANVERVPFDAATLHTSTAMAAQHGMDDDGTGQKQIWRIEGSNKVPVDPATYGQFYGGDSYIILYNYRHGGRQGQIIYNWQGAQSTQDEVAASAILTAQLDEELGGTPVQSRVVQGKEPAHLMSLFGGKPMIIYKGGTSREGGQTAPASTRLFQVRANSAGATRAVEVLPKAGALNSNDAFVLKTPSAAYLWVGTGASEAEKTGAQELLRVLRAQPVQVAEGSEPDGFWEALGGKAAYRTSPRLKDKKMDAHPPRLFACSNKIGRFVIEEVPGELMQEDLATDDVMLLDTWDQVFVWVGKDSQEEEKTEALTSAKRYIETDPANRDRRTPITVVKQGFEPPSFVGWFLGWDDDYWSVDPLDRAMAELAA

B1: Aptamer 10.10R coated on Ag nanoparticles (ssDNA)
DNA: TCAAGTGGTCATGTACTAGTCAAGCACTTTCGCTGCTCGCTGGCGCCGCGCCCATCATATGTCCTTCTCTTCCCTA
- binding signal: 3 fold vs aptamer only
